According to patent US20140112936A1:

Assays:
[1] = target: gp41-inter (HIV-1 clade A isolate 92UG037.8); test: SPR, gp41-inter immobilized on CM5 chip, Fab as analyte, 1:1 Langmuir
[2] = target: GCN4-gp41-inter (HIV-1 clade A isolate 92UG037.8 (gp41 part)); test: SPR, GCN4-gp41-inter immobilized on CM5 chip, Fab as analyte, 1:1 Langmuir
[3] = target: gp41-inter (HIV-1 clade A isolate 92UG037.8); test: SPR, gp41-inter immobilized on CM5 chip, Fab as analyte, 1:1 Langmuir (single curve)
[4] = target: GCN4-gp41-inter (HIV-1 clade A isolate 92UG037.8 (gp41 part)); test: SPR, GCN4-gp41-inter immobilized on CM5 chip, Fab as analyte, 1:1 Langmuir (single curve)

| Substance | Kd [1] [nM] | koff [1] [s⁻¹] | kon [1] [M⁻¹ s⁻¹] | Kd [2] [nM] | koff [2] [s⁻¹] | kon [2] [M⁻¹ s⁻¹] | Kd [3] [nM] | koff [3] [s⁻¹] | kon [3] [M⁻¹ s⁻¹] | Kd [4] [nM] | koff [4] [s⁻¹] | kon [4] [M⁻¹ s⁻¹] |
| --- | --- | --- | --- | --- | --- | --- | --- | --- | --- | --- | --- | --- |
| Z13e1 Fab | 97.7 | 0.00548 | 56000 | 34 | 0.00289 | 85000 | – | – | – | – | – | – |
| 4E10 Fab | – | – | – | – | – | – | 8.85 | 0.000235 | 26600 | 4.86 | 0.000237 | 48800 |
| 2F5 Fab | 0.415 | 0.00019 | 457000 | 0.317 | 0.000158 | 498000 | – | – | – | – | – | – |
